From the Immune Epitope Database (IEDB)
pKd: −log10 of the molar value.

Assays:
HLA-A*01:01 [1] = assay: IEDB peptide-MHC binding, purified MHC/direct/fluorescence; filed as Kd, often an IC50 or EC50 that approximates it; ≥ and ≤ were set here for values at or beyond the usual limits of such assays
HLA-A*02:01 [2] = assay: as above
HLA-A*03:01 [3] = assay: as above
HLA-A*11:01 = assay: as above
HLA-A*24:02 = assay: as above; conditions: source organism: Vibrio parahaemolyticus
HLA-A*26:01 [4] = assay: as above
HLA-A*31:01 = assay: as above
HLA-A*69:01 [5] = assay: as above
HLA-B*07:02 = assay: as above
HLA-B*08:02 = assay: as above; conditions: source organism: Vibrio parahaemolyticus RIMD 2210633
HLA-B*15:01 [6] = assay: as above
HLA-B*18:01 [7] = assay: as above; conditions: source organism: Vibrio parahaemolyticus
HLA-B*27:05 = assay: as above
HLA-B*40:01 = assay: as above
HLA-B*44:02 = assay: as above; conditions: source organism: Vibrio parahaemolyticus
HLA-B*46:01 [8] = assay: as above; conditions: source organism: Vibrio parahaemolyticus
HLA-B*58:01 [9] = assay: as above
HLA-B*08:01 [10] = assay: IEDB peptide-MHC binding, purified MHC/competitive/fluorescence; filed as Kd, often an IC50 or EC50 that approximates it; ≥ and ≤ were set here for values at or beyond the usual limits of such assays
HLA-C*03:03 = assay: IEDB peptide-MHC binding, purified MHC/direct/fluorescence; filed as Kd, often an IC50 or EC50 that approximates it; ≥ and ≤ were set here for values at or beyond the usual limits of such assays; conditions: source organism: Bacillus mycoides KBAB4
HLA-C*06:02 = assay: as above; conditions: source organism: Bacillus mycoides KBAB4
HLA-C*12:03 = assay: as above
HLA-C*14:02 = assay: as above
HLA-B*51:01 = assay: IEDB peptide-MHC binding, purified MHC/competitive/fluorescence; filed as Kd, often an IC50 or EC50 that approximates it; ≥ and ≤ were set here for values at or beyond the usual limits of such assays
HLA-A*01:01 [11] = assay: as above; conditions: source organism: Salmonella enterica subsp. enterica serovar Typhi
HLA-A*03:01 [12] = assay: as above
HLA-A*26:01 [13] = assay: as above
HLA-B*58:01 [14] = assay: as above
HLA-A*02:01 [15] = assay: as above
HLA-B*15:01 [16] = assay: as above
HLA-B*35:01 = assay: as above
HLA-B*46:01 [17] = assay: as above
HLA-A*24:03 = assay: IEDB peptide-MHC binding, purified MHC/direct/fluorescence; filed as Kd, often an IC50 or EC50 that approximates it; ≥ and ≤ were set here for values at or beyond the usual limits of such assays; conditions: source organism: Pseudomonas aeruginosa
HLA-A*30:01 = assay: as above; conditions: source organism: Pseudomonas aeruginosa
HLA-B*08:01 [18] = assay: as above; conditions: source organism: Pseudomonas aeruginosa UCBPP-PA14
HLA-A*02:03 = assay: as above; conditions: source organism: Zaire ebolavirus
HLA-A*02:11 = assay: as above; conditions: source organism: Zaire ebolavirus
HLA-A*02:12 = assay: as above; conditions: source organism: Zaire ebolavirus
HLA-A*02:16 = assay: as above; conditions: source organism: Zaire ebolavirus
HLA-A*02:19 = assay: as above; conditions: source organism: Zaire ebolavirus
HLA-A*68:02 = assay: as above; conditions: source organism: Zaire ebolavirus
HLA-A*69:01 [19] = assay: IEDB peptide-MHC binding, purified MHC/competitive/fluorescence; filed as Kd, often an IC50 or EC50 that approximates it; ≥ and ≤ were set here for values at or beyond the usual limits of such assays; conditions: source organism: Zaire ebolavirus
HLA-B*18:01 [20] = assay: as above; conditions: source organism: Zaire ebolavirus
HLA-B*27:03 = assay: as above; conditions: source organism: Zaire ebolavirus
HLA-B*39:01 = assay: as above; conditions: source organism: Zaire ebolavirus
[21] = source organism: Vibrio parahaemolyticus
[22] = source organism: Bacillus anthracis str. A0488
[23] = source organism: Yersinia pestis Antiqua
[24] = source organism: Salmonella enterica subsp. enterica serovar Typhi
[25] = source organism: West Nile virus
[26] = source organism: Bacillus anthracis str. A2012
[27] = source organism: Yersinia pestis Nepal516
[28] = source organism: Pseudomonas aeruginosa UCBPP-PA14
[29] = source organism: Shigella flexneri 5 str. 8401
[30] = source organism: Zaire ebolavirus

In the case of ALSMGINTV, the pKd (HLA-A*01:01 [1]; [21]) was ≤ 4.70, the pKd (HLA-A*02:01 [2]; [21]) was 7.45 and the pKd (HLA-A*03:01 [3]; [21]) was ≤ 4.70. The pKd (HLA-A*11:01; [21]) was ≤ 4.70, the pKd (HLA-A*24:02) was ≤ 4.70 and the pKd (HLA-A*26:01 [4]; source organism: Vibrio parahaemolyticus RIMD 2210633) was ≤ 4.70. The pKd (HLA-A*31:01; [21]) was ≤ 4.70, the pKd (HLA-A*69:01 [5]; [21]) was 5.70 and the pKd (HLA-B*07:02; [21]) was ≤ 4.70. For the same sequence, the pKd (HLA-B*08:02) was ≤ 4.70, the pKd (HLA-B*15:01 [6]; [21]) was ≤ 4.70 and the pKd (HLA-B*18:01 [7]) was ≤ 4.70. The pKd (HLA-B*27:05; [21]) was ≤ 4.70, the pKd (HLA-B*40:01; [21]) was ≤ 4.70 and the pKd (HLA-B*44:02) was ≤ 4.70. For the same sequence, the pKd (HLA-B*46:01 [8]) was ≤ 4.70, the pKd (HLA-B*58:01 [9]; [21]) was ≤ 4.70 and the pKd (HLA-B*08:01 [10]; source organism: Vibrio parahaemolyticus K5030) was ≤ 4.70.

For FAFCRITSF, the pKd (HLA-C*03:03) was 8.70, the pKd (HLA-C*06:02) was 5.97 and the pKd (HLA-C*12:03; source organism: Bacillus mycoides KBAB4) was ≥ 9.00.

AANMYIYPL showed a pKd (HLA-C*14:02; [22]) of 7.24 and a pKd (HLA-B*08:01 [10]; [22]) of 5.96.

With EAKLFFQVI the pKd (HLA-B*08:01 [10]; [23]) was 6.12 and the pKd (HLA-B*51:01; [23]) was 6.14.

VTIGNAYIY was tested, and the pKd (HLA-A*01:01 [11]) was 5.46, the pKd (HLA-A*03:01 [12]; [24]) was ≤ 4.70 and the pKd (HLA-A*26:01 [13]; [24]) was 5.98. The pKd (HLA-B*58:01 [14]; [24]) was 7.20.

SLYAVTTAV showed a pKd (HLA-C*12:03; [25]) of 7.57 and a pKd (HLA-A*02:01 [15]; [25]) of 8.86.

AYVTWIALM showed a pKd (HLA-C*14:02; source organism: Mus musculus) of 7.57.

With MGMNAYFAY the pKd (HLA-B*15:01 [16]; [26]) was 7.21 and the pKd (HLA-B*35:01; [26]) was ≥ 10.00.

With VSFLISWSL the pKd (HLA-B*58:01 [14]; [26]) was 5.58.

VVNDFTVSY gave a pKd (HLA-A*03:01 [12]; [27]) of 6.92, a pKd (HLA-A*26:01 [13]; [27]) of 6.65 and a pKd (HLA-B*35:01; [27]) of 8.46.

KQYNVTQAF was tested, and the pKd (HLA-A*02:01 [2]; source organism: SARS-CoV1) was ≤ 4.29, the pKd (HLA-A*03:01 [3]; source organism: SARS-CoV1) was 5.20 and the pKd (HLA-A*11:01; source organism: SARS-CoV1) was ≤ 4.55. For the same sequence, the pKd (HLA-A*31:01; source organism: SARS-CoV1) was 6.35, the pKd (HLA-B*15:01 [6]; source organism: SARS-CoV1) was 7.06 and the pKd (HLA-B*27:05; source organism: SARS-CoV1) was 6.27. For the same sequence, the pKd (HLA-B*40:01; source organism: SARS-CoV1) was 5.27, the pKd (HLA-B*58:01 [9]; source organism: SARS-CoV1) was 6.00 and the pKd (HLA-C*14:02; source organism: SARS-CoV1) was 8.70. It also gave a pKd (HLA-B*46:01 [17]; source organism: SARS-CoV1) of 7.19.

AYGSRFHEW was tested, and the pKd (HLA-A*01:01 [1]; [28]) was ≤ 4.70, the pKd (HLA-A*02:01 [2]; [28]) was ≤ 4.70 and the pKd (HLA-A*03:01 [3]; [28]) was ≤ 4.70. The pKd (HLA-A*11:01; [28]) was ≤ 4.70, the pKd (HLA-A*24:03) was 8.74 and the pKd (HLA-A*26:01 [4]; [28]) was ≤ 4.70. The pKd (HLA-A*30:01) was ≤ 4.50, the pKd (HLA-A*69:01 [5]; [28]) was ≤ 4.70 and the pKd (HLA-B*07:02; [28]) was ≤ 4.70. The pKd (HLA-B*08:01 [18]) was ≤ 4.70, the pKd (HLA-B*27:05; [28]) was ≤ 4.70 and the pKd (HLA-B*40:01; [28]) was ≤ 4.70. It also gave a pKd (HLA-B*58:01 [9]; source organism: Pseudomonas aeruginosa) of 5.33.

With MFAAGLILY the pKd (HLA-A*03:01 [12]; [29]) was ≤ 4.70, the pKd (HLA-B*15:01 [16]; [29]) was ≤ 4.70 and the pKd (HLA-B*35:01; [29]) was 5.97.

With VLMKQIPIW the pKd (HLA-A*02:03) was ≤ 4.70, the pKd (HLA-A*02:11) was ≤ 4.70 and the pKd (HLA-A*02:12) was ≤ 4.70. For the same sequence, the pKd (HLA-A*02:16) was ≤ 4.70, the pKd (HLA-A*02:19) was ≤ 4.70 and the pKd (HLA-A*03:01 [3]; [30]) was ≤ 4.70. For the same sequence, the pKd (HLA-A*68:02) was ≤ 4.70, the pKd (HLA-A*02:01 [15]; [30]) was ≤ 4.70 and the pKd (HLA-A*26:01 [13]; [30]) was ≤ 4.70. For the same sequence, the pKd (HLA-A*69:01 [19]) was ≤ 4.70, the pKd (HLA-B*15:01 [16]; [30]) was ≤ 4.70 and the pKd (HLA-B*18:01 [20]) was ≤ 4.70. The pKd (HLA-B*27:03) was ≤ 4.70, the pKd (HLA-B*39:01) was ≤ 4.70 and the pKd (HLA-B*46:01 [17]; [30]) was ≤ 4.70. The pKd (HLA-B*51:01; [30]) was ≤ 4.70 and the pKd (HLA-B*58:01 [14]; [30]) was 8.89.

For LMLADHPEY, the pKd (HLA-B*15:01 [6]; source organism: Mycobacterium tuberculosis) was 6.50 and the pKd (HLA-B*35:01; source organism: Mycobacterium tuberculosis C) was 7.73.
